Data as given in patent publication US20080146500A1, “Selective Vpac2 Receptor Peptide Agonists” (priority 2004, published 2008).
Ends that are not written are not given here.

Columns and labels:
human VPAC1 = target: T1, human VPAC1 (Homo sapiens, UniProt P32241); assay: Filter binding assay, membranes from cells transiently transfected with human VPAC1, 125I-labeled VIP tracer; conditions: read-out: Human receptor binding (IC50; nM) VPAC1
T1 construct: expressed in transfected cells
T1 sequence (P32241 31-457): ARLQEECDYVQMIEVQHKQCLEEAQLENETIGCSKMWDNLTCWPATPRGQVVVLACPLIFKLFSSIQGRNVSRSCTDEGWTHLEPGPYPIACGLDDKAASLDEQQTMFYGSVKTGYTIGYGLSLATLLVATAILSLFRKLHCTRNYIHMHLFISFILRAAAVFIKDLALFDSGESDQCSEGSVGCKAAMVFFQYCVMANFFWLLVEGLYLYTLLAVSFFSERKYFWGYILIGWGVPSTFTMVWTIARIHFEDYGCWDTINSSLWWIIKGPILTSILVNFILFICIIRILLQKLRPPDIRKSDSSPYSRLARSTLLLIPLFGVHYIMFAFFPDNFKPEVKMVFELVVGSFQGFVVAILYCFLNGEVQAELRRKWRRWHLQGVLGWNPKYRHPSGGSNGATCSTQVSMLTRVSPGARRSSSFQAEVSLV
Experimental: For this assay, the solutions and equipment include:
Presoak solution: 0.5% Polyethyleneamine in Aqua dest.
Buffer for flushing filter plates: 25 mM HEPES pH 7.4
Blocking buffer: 25 mM HEPES pH 7.4; 0.2% protease free BSA
Assay buffer: 25 mM HEPES pH 7.4; 0.5% protease free BSA
Dilution and assay plate: PS-Microplate, U form
Filtration Plate Multiscreen FB Opaque Plate; […] Type B Glasfiber filter
In order to prepare the filter plates, the presoak solution is aspirated by vacuum filtration. The plates are flushed twice with 200 μL flush buffer. 200 μL blocking buffer is added to the filter plate. The filter plate is then incubated with 200 μL presoak solution for 1 hour at room temperature.
The assay plate is filled with […] (2.5 μg) suspended in assay buffer, 25 μL compound (agonist) in assay buffer, and 25 μL tracer (about 40000 cpm) in assay buffer. The filled plate is incubated for 1 hour with shaking.
The transfer from assay plate to filter plate is conducted. The blocking buffer is aspirated by vacuum filtration and washed two times with flush buffer. 90 μL is transferred from the assay plate to the filter plate. The 90 μL transferred from assay plate is aspirated and washed three times with 200 μL flush buffer. The plastic support is removed. It is dried for 1 hour at 60° C. 30 μL Microscint is added. The count is performed.
Values reported are single results or the mean of two or more independent runs.

rat VPAC1 receptor = target: T2, rat VPAC1 receptor (Rattus norvegicus, UniProt P30083); assay: Rat VPAC1 in vitro potency (cAMP generation, DiscoveRx) in transiently transfected CHO-PO cells; format: cell-based; conditions: CHO-PO cells transiently transfected with rat VPAC1; read-out: rVPAC1 in vitro potency (cAMP generation) EC50
T2 construct: expressed in transfected cells; host or cells: CHO-PO cells, transient
T2 sequence (P30083 31-459): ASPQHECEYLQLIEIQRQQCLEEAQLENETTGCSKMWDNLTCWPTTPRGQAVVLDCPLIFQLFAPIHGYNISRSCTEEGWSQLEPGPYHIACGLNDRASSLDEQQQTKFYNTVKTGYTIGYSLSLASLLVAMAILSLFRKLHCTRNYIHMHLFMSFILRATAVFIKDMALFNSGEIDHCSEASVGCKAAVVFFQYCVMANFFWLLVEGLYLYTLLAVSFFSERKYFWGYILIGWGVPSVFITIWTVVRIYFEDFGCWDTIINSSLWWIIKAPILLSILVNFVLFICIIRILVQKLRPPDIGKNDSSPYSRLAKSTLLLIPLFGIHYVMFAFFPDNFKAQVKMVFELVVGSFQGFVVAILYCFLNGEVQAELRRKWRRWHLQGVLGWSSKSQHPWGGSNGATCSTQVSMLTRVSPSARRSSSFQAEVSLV
Experimental: (§1) Rat receptor selectivity is estimated by comparing functional potency (cAMP generation) in CHO-PO cells transiently expressing rat VPAC1 or rat VPAC2 receptors. CHO-PO cells transiently expressing rat VPAC1 or VPAC2, are seeded with 10,000 cells/well three days before the assay. The cells are kept in 200 μL culture medium. […] The stimuli are present for 30 minutes. The assay buffer is then gently removed.

rat VPAC2 receptor = target: T3, rat VPAC2 receptor (Rattus norvegicus, UniProt P35000); assay: Rat VPAC2 in vitro potency (cAMP generation, DiscoveRx) in transiently transfected CHO-PO cells; format: cell-based; conditions: CHO-PO cells transiently transfected with rat VPAC2; read-out: rVPAC2 in vitro potency (cAMP generation) EC50
T3 construct: expressed in transfected cells; host or cells: CHO-PO cells, transient
T3 sequence (P35000 23-437): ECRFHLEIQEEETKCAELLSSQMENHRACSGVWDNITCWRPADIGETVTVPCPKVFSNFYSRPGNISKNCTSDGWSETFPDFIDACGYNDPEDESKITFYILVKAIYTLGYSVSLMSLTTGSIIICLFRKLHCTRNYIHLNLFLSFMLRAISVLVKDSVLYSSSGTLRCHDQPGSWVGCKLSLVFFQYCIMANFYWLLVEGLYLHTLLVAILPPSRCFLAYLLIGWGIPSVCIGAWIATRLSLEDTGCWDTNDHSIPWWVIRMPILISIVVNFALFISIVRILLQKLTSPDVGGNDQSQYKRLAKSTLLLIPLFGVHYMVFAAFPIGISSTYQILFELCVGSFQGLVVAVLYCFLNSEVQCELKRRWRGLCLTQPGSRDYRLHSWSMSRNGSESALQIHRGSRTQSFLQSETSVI
Experimental: as §1

Substance: C6-HDAVFTEQY(OMe)TOrnLRAibQVAAAibOrnYLQSIOrnOrnGGPSSGAPPPC(PEG60K)-NH2 [Agonist P404]
- IC50 (human VPAC1): > 3000 nM
- EC50 (rat VPAC1 receptor): 23.4 nM
- EC50 (rat VPAC2 receptor): 24.4 nM

Substance: C6-HSDAVFTDNYTOrnLRAibQVAAAibKYLQC(PEG40K)IOrnNOrnGGPSSGAPPPS (HSDAVFTDNYTXLRXQVAAXKYLQCIXNXGGPSSGAPPPS; non-natural residues) [Agonist P373]
- IC50 (human VPAC1): > 25000 nM
- EC50 (rat VPAC1 receptor): 350 nM
- EC50 (rat VPAC2 receptor): 72.2 nM

Substance: C6-HSDAVFTEQY(OMe)TOrnLRAibQVAK(CO(CH2)2SPEG40K)AibOrnYLQSIOrnOrnGGPSSGAPPPS-NH2 (HSDAVFTEQYTXLRXQVAXXXYLQSIXXGGPSSGAPPPS; non-natural residues) [Agonist P432]
- IC50 (human VPAC1): > 3000 nM
- EC50 (rat VPAC1 receptor): > 100 nM
- EC50 (rat VPAC2 receptor): 16.7 nM

Substance: P137: PEGylated material obtained from P120 and methoxy-PEG2-MAL-40K (HSDAVFTDNYTRLRKQVAAKKYLQSIKNKRYGGPSSGAPPPC; also: PEGylated with methoxy-PEG2-MAL-40K, site not given here) [Agonist P137]
- IC50 (human VPAC1): 853 nM
- EC50 (rat VPAC1 receptor): 29.7 nM
- EC50 (rat VPAC2 receptor): 8 nM
